In paper PMC3048740 one finds FRET reduction against WT-Orai3 with Stim1 data, which are given here for two substances.

Assay [1] has as its target YFP-Stim1 (human) (UniProt Q13586). Description: FRET or BRET.
Assay [2] concerns the target CFP-Stim1 (human) (UniProt Q13586). Description: FRET or BRET.

“CFP-Orai3-L292S (from UniProt Q9BRQ5 1-295) (natural protein)” gave an FRET reduction against WT-Orai3 with Stim1 in assay [1] of 20%.
Substance “YFP-Orai3-L285S (from UniProt Q9BRQ5 1-295) (natural protein)” returned an FRET reduction against WT-Orai3 with Stim1 in assay [2] of 35%.
